Test results: PMC4227788, “Architecture and ssDNA interaction of the Timeless-Tipin-RPA complex” (Nucleic Acids Research, 2014)

What was measured:
[1] = molecular target: T1, Tim interacting protein (Tipin, residues 1-278) (mouse, UniProt Q91WA1 1-278); assay: SEC; Tim and Tipin co-expressed in E. coli and co-purified (Ni-NTA, Q-sepharose, SEC on Superdex 200 16/60; 20 mM Hepes pH 7.0, 125 mM NaCl, 2 mM DTT); single peak; conditions: partners not purified
T1 construct: The Tipin chain of m1, written alone for the pair Tim with Tipin; also called His-GST-Tipin; source: E. coli BL21 (DE3) gold with pRARE, co-expressed with Tim, co-purified
T1 sequence (looked up): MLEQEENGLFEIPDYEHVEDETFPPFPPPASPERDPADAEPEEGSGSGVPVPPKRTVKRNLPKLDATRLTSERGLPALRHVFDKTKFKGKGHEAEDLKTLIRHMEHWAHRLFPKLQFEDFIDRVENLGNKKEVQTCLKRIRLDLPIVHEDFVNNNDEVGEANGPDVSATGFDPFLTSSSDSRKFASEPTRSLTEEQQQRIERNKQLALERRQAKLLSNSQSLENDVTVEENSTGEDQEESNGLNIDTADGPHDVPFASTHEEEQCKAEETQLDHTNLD

[2] = molecular target: T2, Tim-Tipin complex (mouse, UniProt Q9R1X4;Q91WA1 1-1134;1-278); assay: fluorescence anisotropy; Hill n = 2.2 ± 0.1; 30 C; 20 mM Hepes pH 7.5, 125 mM NaCl, 2 mM DTT, 0.01 mM zinc acetate (Buffer A); EMSA 15 min RT + 15 min 4 C; FA 15 min 30 C, 10 nM DNA; conditions: protein: recombinant; tags: His (Tim) and His-GST (Tipin), cleaved with 3C; copies: 1;1; label: 5'-FAM
T2 sequence 1: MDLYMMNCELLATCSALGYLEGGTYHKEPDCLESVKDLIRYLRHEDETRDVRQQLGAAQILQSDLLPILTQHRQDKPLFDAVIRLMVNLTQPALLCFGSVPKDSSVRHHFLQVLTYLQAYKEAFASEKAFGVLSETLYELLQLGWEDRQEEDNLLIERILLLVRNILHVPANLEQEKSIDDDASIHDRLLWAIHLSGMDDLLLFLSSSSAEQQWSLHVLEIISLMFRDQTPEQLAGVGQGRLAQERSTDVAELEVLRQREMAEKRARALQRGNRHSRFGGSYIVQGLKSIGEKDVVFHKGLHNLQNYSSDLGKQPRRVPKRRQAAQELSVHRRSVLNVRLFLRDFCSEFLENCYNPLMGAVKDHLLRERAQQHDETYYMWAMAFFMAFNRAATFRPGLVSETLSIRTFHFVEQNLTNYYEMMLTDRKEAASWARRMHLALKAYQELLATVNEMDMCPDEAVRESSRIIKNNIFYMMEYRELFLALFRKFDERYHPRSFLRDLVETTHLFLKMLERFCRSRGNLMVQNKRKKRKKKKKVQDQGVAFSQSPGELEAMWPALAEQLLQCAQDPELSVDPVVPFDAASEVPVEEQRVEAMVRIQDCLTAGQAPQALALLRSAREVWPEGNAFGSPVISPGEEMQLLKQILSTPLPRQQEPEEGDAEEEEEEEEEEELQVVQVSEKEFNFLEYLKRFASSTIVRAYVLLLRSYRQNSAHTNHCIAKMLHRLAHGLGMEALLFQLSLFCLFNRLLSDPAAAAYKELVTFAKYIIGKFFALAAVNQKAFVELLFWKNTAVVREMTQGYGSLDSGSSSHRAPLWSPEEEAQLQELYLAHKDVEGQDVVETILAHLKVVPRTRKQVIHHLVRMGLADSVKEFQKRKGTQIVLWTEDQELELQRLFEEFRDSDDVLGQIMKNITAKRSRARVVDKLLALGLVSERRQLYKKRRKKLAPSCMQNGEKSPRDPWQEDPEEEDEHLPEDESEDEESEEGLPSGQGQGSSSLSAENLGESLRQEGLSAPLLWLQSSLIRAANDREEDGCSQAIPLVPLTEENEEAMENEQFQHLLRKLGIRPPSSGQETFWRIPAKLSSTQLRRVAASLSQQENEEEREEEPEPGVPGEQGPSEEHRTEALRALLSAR
T2 sequence 2: T1 sequence (looked up)

[3] = molecular target: T3, RPA70/32/14 (RPA70ABC/32D-WH/14) (mouse, UniProt Q8VEE4;Q99KL9;Q9CQ71 190-623;43-270;1-121); assay: EMSA; 1 RPA with excess DNA, up to 4 RPA at substoichiometric DNA; 20 mM Hepes pH 7.5, 125 mM NaCl, 2 mM DTT, 0.01 mM zinc acetate (Buffer A); EMSA 15 min RT + 15 min 4 C; FA 15 min 30 C, 10 nM DNA; conditions: protein: recombinant; tags: His; copies: 1;1;1; label: 5'-FAM
T3 sequence (Q8VEE4 190-623, chain 1 of 3): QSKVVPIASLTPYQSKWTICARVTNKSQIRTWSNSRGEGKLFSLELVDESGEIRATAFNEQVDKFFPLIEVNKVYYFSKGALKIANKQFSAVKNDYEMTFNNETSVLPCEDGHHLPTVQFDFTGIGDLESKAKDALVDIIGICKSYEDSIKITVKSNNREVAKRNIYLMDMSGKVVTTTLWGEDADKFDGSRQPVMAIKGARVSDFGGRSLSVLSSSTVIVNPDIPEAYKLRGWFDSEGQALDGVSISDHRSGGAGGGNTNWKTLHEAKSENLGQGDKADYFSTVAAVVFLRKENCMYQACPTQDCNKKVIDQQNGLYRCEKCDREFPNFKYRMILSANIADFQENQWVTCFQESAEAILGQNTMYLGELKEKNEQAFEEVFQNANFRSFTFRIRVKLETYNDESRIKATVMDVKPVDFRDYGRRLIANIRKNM
T3 sequence (chain, as listed by the source, chain 2 of 3): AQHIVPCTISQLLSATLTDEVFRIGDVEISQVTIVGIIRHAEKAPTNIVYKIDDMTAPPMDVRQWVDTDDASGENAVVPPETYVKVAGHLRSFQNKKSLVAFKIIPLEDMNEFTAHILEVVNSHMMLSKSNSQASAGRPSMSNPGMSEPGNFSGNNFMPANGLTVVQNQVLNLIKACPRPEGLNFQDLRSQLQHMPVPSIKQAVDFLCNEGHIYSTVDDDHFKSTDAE
T3 sequence (Q9CQ71 whole entry, chain 3 of 3): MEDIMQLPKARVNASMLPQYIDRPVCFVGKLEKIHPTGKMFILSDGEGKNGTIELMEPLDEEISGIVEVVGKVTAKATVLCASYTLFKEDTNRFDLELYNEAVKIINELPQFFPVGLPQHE

[4] = molecular target: T4, Tim-Tipin complex;RPA70/32/14 (RPA70ABC/32D-WH/14) (mouse;mouse, UniProt Q9R1X4;Q91WA1;Q8VEE4;Q99KL9;Q9CQ71 1-1134;1-278;190-623;43-270;1-121, |); assay: EMSA; excess DNA; partial dissociation; 20 mM Hepes pH 7.5, 125 mM NaCl, 2 mM DTT, 0.01 mM zinc acetate (Buffer A); EMSA 15 min RT + 15 min 4 C; FA 15 min 30 C, 10 nM DNA; conditions: protein: recombinant;recombinant; tags: His (Tim) and His-GST (Tipin), cleaved with 3C;His; copies: 1;1;1;1;1; label: 5'-FAM
T4 sequence (Q8VEE4 190-623, chain 3 of 3): as the sequence (Q8VEE4 190-623, chain 1 of 3) above
T4 sequence (chain, as listed by the source |, chain 4 of 3): as the sequence (chain, as listed by the source, chain 2 of 3) above
T4 sequence (Q9CQ71 whole entry, chain 5 of 3): as the sequence (Q9CQ71 whole entry, chain 3 of 3) above

[5] = molecular target: T2, Tim-Tipin complex; assay: EMSA; 16 uM protein, 4-64 uM DNA; 20 mM Hepes pH 7.5, 125 mM NaCl, 2 mM DTT, 0.01 mM zinc acetate (Buffer A); EMSA 15 min RT + 15 min 4 C; FA 15 min 30 C, 10 nM DNA; conditions: protein: recombinant; tags: His (Tim) and His-GST (Tipin), cleaved with 3C; copies: 1;1; label: 5'-FAM
[6] = molecular target: T3, RPA70/32/14 (RPA70ABC/32D-WH/14); assay: EMSA; 1 RPA per DNA; 20 mM Hepes pH 7.5, 125 mM NaCl, 2 mM DTT, 0.01 mM zinc acetate (Buffer A); EMSA 15 min RT + 15 min 4 C; FA 15 min 30 C, 10 nM DNA; conditions: protein: recombinant; tags: His; copies: 1;1;1; label: 5'-FAM
[7] = molecular target: T4, Tim-Tipin complex;RPA70/32/14 …; assay: SEC; excess DNA; intact complex, 260/280 = 1.20 ± 0.04; 20 mM Hepes pH 7.5, 125 mM NaCl, 2 mM DTT, 0.01 mM zinc acetate (Buffer A); EMSA 15 min RT + 15 min 4 C; FA 15 min 30 C, 10 nM DNA; conditions: protein: recombinant;recombinant; tags: His (Tim) and His-GST (Tipin), cleaved with 3C;His; copies: 1;1;1;1;1
[8] = molecular target: T3, RPA70/32/14 (RPA70ABC/32D-WH/14); assay: SEC; excess DNA 260/280 = 1.57 ± 0.05; substoichiometric 1.32 ± 0.03; 20 mM Hepes pH 7.5, 125 mM NaCl, 2 mM DTT, 0.01 mM zinc acetate (Buffer A); EMSA 15 min RT + 15 min 4 C; FA 15 min 30 C, 10 nM DNA; conditions: protein: recombinant; tags: His; copies: 1;1;1
[9] = molecular target: T2, Tim-Tipin complex; assay: SEC; excess DNA; partial binding, 260/280 = 0.98 ± 0.14; 20 mM Hepes pH 7.5, 125 mM NaCl, 2 mM DTT, 0.01 mM zinc acetate (Buffer A); EMSA 15 min RT + 15 min 4 C; FA 15 min 30 C, 10 nM DNA; conditions: protein: recombinant; tags: His (Tim) and His-GST (Tipin), cleaved with 3C; copies: 1;1
[10] = molecular target: T2, Tim-Tipin complex; assay: SEC; 260/280 = 0.54, excess or substoichiometric DNA; 20 mM Hepes pH 7.5, 125 mM NaCl, 2 mM DTT, 0.01 mM zinc acetate (Buffer A); EMSA 15 min RT + 15 min 4 C; FA 15 min 30 C, 10 nM DNA; conditions: protein: recombinant; tags: His (Tim) and His-GST (Tipin), cleaved with 3C; copies: 1;1
[11] = molecular target: T3, RPA70/32/14 (RPA70ABC/32D-WH/14); assay: SEC; DNA-bound RPA released from Tim-Tipin-RPA mixture, 260/280 = 1.27 ± 0.05 and 1.22 ± 0.04; 20 mM Hepes pH 7.5, 125 mM NaCl, 2 mM DTT, 0.01 mM zinc acetate (Buffer A); EMSA 15 min RT + 15 min 4 C; FA 15 min 30 C, 10 nM DNA; conditions: protein: recombinant; tags: His; copies: 1;1;1
[12] = molecular target: T4, Tim-Tipin complex;RPA70/32/14 …; assay: SEC; excess DNA; intact complex, 260/280 = 1.11 ± 0.04; 20 mM Hepes pH 7.5, 125 mM NaCl, 2 mM DTT, 0.01 mM zinc acetate (Buffer A); EMSA 15 min RT + 15 min 4 C; FA 15 min 30 C, 10 nM DNA; conditions: protein: recombinant;recombinant; tags: His (Tim) and His-GST (Tipin), cleaved with 3C;His; copies: 1;1;1;1;1
[13] = molecular target: T3, RPA70/32/14 (RPA70ABC/32D-WH/14); assay: SEC; excess DNA 260/280 = 1.46 ± 0.01; substoichiometric 1.28 ± 0.05; 20 mM Hepes pH 7.5, 125 mM NaCl, 2 mM DTT, 0.01 mM zinc acetate (Buffer A); EMSA 15 min RT + 15 min 4 C; FA 15 min 30 C, 10 nM DNA; conditions: protein: recombinant; tags: His; copies: 1;1;1

B1: Timeless (Tim, residues 1-1134) (domain or fragment, mouse, UniProt Q9R1X4 1-1134, looked up)
chain: T2 sequence 1
notes: Timeless (Tim), mouse, AB019001, aa 1-1134; The Tim chain of m1, written alone for the pair Tim with Tipin; also called mTim; His-Tim; source: E. coli BL21 (DE3) gold with pRARE, co-expressed with Tipin, co-purified
**Q.** How did the “stoichiometry N” value [1] turn out when B1 was run?
**A.** Its value is 1.

B2: 60 nt FAM ssDNA (ssDNA)
DNA: ACGCTGCCGAATTCTACCAGTGCCTTGCTAGGACATCTTTGCCCACCTGCAGGTTCACCC
**Q.** What does the source list for B2?
**A.** Kd [2]: 290 ± 10 nM; binding result [3]: binds; binding result [4]: binds

B3: 14 nt FAM ssDNA (ssDNA)
DNA: GACGGCATCCCTAA
**Q.** Does B3 bind [5]?
**A.** Result: no binding

**Q.** Does B3 bind [6]?
**A.** Result: binds

B4: 60 nt ssDNA (SEC) (ssDNA)
DNA: CAGACCGCCACCGACTGCTTAGATATTTAAGTTTTCTAATTTTTCATTGAAAGCATTAAG
**Q.** What does the source list for B4?
**A.** binding result [7]: binds; binding result [8]: binds; binding result [9]: binds

B5: 14 nt ssDNA (SEC) (ssDNA)
DNA: AGAAGAGCCAAAAC
**Q.** Does B5 bind [10]?
**A.** Result: no binding

**Q.** Does B5 bind [11]?
**A.** Result: binds

B6: 31 nt ssDNA (SEC) (ssDNA)
DNA: CGGGATCCCAGCCAGCGATGTCTCAAGCTGC
**Q.** What does the source list for B6?
**A.** binding result [12]: binds; binding result [13]: binds
